Broadly, the Kd is the free concentration of one partner at which half of the binding sites on the other are occupied at equilibrium, for simple one-to-one binding. What is called stoichiometry N is a count of units in the complex or per binding partner.

This is an account of results in PMC10279719 (Nature Communications, 2023).

Series [1] addresses T1, CrkII NSH3 domain (CrkII^NSH3, residues 134–191) (human, UniProt P46108-1 134-191).
T1 construct: human CrkII residues 134-191, N-terminal SH3 domain
In words: ITC; ternary, sequential; CrkII^NSH3 (400 μM, syringe) titrated into the peptide (16.8 µM) left in the cell after a first titration with 14-3-3ɣ; 25 °C, 20 mM HEPES pH 7.4, 150 mM NaCl, 1 mM TCEP. To be noted: both partners purified.

Series [2] concerns the target T2, full length CrkII, dimer (CrkII^FL dimer) (human, UniProt P46108-1 1-304, biotin (EZ-Link NHS-PEG4-Biotin, 1:1 molar ratio) where it was immobilised (a1)).
T2 construct: full length human CrkII, printed as UniProt P46108-1, residues 1-330
As to the kind of experiment: SPR; biotinylated adapter proteins captured with a biotin CAPture kit, pY peptides as analytes; Biacore 8K+, 20 °C, HBS-TP (20 mM HEPES pH 7.4, 150 mM NaCl, 1 mM TCEP, 0.005% Tween-P20) with 2% DMSO; 1 M NaCl regeneration; steady state, 1:1 model. The settings on record: both partners purified. A general note: SPR reads the build-up and loss of mass on a sensor chip optically.

For series [3], the target named is T3, full length Grb2 (Grb2^FL, residues 1-217) (human, UniProt P62993-1 1-217, biotin (EZ-Link NHS-PEG4-Biotin, 1:1 molar ratio) where it was immobilised (a1)).
T3 construct: full length human Grb2, UniProt P62993-1, residues 1-217
The description is as above. The settings on record: both partners purified.

The target in series [4] is T4, Grb2 SH2 domain (Grb2^SH2) (human, UniProt P62993-1 60-152, biotin (EZ-Link NHS-PEG4-Biotin, 1:1 molar ratio) where it was immobilised (a1)).
T4 construct: SH2 domain of human Grb2; This construct is not in the list of the methods; the other adapter constructs were made in E. coli C41 (DE3) with an N-terminal His8 tag
The series is described as above. The settings on record: both partners purified.

Series [5] concerns the target T5, full length CrkII, monomer (CrkII^FL monomer) (human, UniProt P46108-1 1-304, biotin (EZ-Link NHS-PEG4-Biotin, 1:1 molar ratio) where it was immobilised (a1)).
T5 construct: full length human CrkII, printed as UniProt P46108-1, residues 1-330
The series is described as above. To be noted: both partners purified.

Series [6] has as its target T6, CrkII SH2 domain (CrkII^SH2, residues 6-120) (human, UniProt P46108-1 6-120, biotin (EZ-Link NHS-PEG4-Biotin, 1:1 molar ratio) where it was immobilised (a1)).
T6 construct: human CrkII SH2 domain, UniProt P46108-1, residues 6-120; The His tag is TEV-cleavable and was cleaved 'when required'
The series is described as above. To be noted: both partners purified.

For series [7], the target named is T1, CrkII NSH3 domain (CrkII^NSH3, residues …). In words: SPR; Biacore S200; CrkII^NSH3 amine coupled to CM5, peptides injected; 20 °C, HBS-TP (20 mM HEPES pH 7.4, 150 mM NaCl, 1 mM TCEP, 0.005% Tween-P20); steady-state 1:1 fit. The settings on record: both partners purified.
For series [8] the target is unchanged. The series is described as above. The settings on record: both partners purified. This is another data set of the same source.
Series [9] concerns the molecule itself. As to the kind of experiment: SEC-MALS; Superdex 200 Increase 10/300 GL, 20 mM HEPES pH 7.5, 150 mM NaCl, 1 mM TCEP, 0.5 ml/min.

Non-standard residues stand in square brackets, D forms with d. pY = N[C@@H](Cc1ccc(OP(=O)(O)O)cc1)C(=O)O

B1: PEAK3^tandem peptide, non-phosphorylated (residues 54–74; Ac-PLPPPLPKKILTRTQSLPTRR-NH2) (peptide)
peptide: Ac-PLPPPLPKKILTRTQSLPTRR-NH2
notes: source: synthetic peptide, bought: Mimotopes
B1 came in with a Kd in series [1] of 0.7 µM.

B2: PEAK3 23-38-pY24 peptide (Ac-T(pY)SNLGQIRAHLLPSK-NH2) (peptide)
peptide: Ac-T[pY]SNLGQIRAHLLPSK-NH2
SMILES: CC[C@H](C)[C@H](NC(=O)[C@H](CCC(N)=O)NC(=O)CNC(=O)[C@H](CC(C)C)NC(=O)[C@H](CC(N)=O)NC(=O)[C@H](CO)NC(=O)[C@H](Cc1ccc(OP(=O)(O)O)cc1)NC(=O)[C@@H](NC(C)=O)[C@@H](C)O)C(=O)N[C@@H](CCCNC(=N)N)C(=O)N[C@@H](C)C(=O)N[C@@H](Cc1c[nH]cn1)C(=O)N[C@@H](CC(C)C)C(=O)N[C@@H](CC(C)C)C(=O)N1CCC[C@H]1C(=O)N[C@@H](CO)C(=O)N[C@@H](CCCCN)C(N)=O
notes: source: synthetic peptide, bought: Mimotopes (95% purity)
For B2, the Kd in series [2] came out at 6.2 µM; in [3] it was 2.2 µM; in [4], 4.2 µM; in series [5], 6.8 µM; in [6], 5.3 µM.

B3: PEAK3^54–66 peptide (Ac-PLPPPLPKKILTR-NH2) (peptide)
peptide: Ac-PLPPPLPKKILTR-NH2
notes: also called PEAK3 PRM peptide; source: synthetic peptide, bought: Mimotopes
In turn, B3 came in with a dissociation constant Kd in series [7] of 1.7 µM.

B4: PEAK2^709–721 peptide (Ac-FSPPPPPPKSRHL-NH2) (peptide)
peptide: Ac-FSPPPPPPKSRHL-NH2
notes: human PEAK2 (SgK223, PRAG1) residues 709-721; also called second PRM of PEAK2; source: synthetic peptide, bought: Mimotopes
In [8], B4 yielded a dissociation constant Kd of 13 µM.

B5: PEAK2IDR1 (PEAK2 residues 802-1406) (domain or fragment, human, UniProt Q86YV5 802-1406, looked up)
chain: EDVSPSGPQQPPPLPQKKIVSRAASSPDGFFWTQGSPKPGTASPKLNLSHSETNVHDESHFSYSLSPGNRHHPVFSSSDPLEKAFKGSGHWLPAAGLAGNRGGCGSPGLQCKGAPSASSSQLSVSSQASTGSTQLQLHGLLSNISSKEGTYAKLGGLYTQSLARLVAKCEDLFMGGQKKELHFNENNWSLFKLTCNKPCCDSGDAIYYCATCSEDPGSTYAVKICKAPEPKTVSYCSPSVPVHFNIQQDCGHFVASVPSSMLSSPDAPKDPVPALPTHPPAQEQDCVVVITREVPHQTASDFVRDSAASHQAEPEAYERRVCFLLLQLCNGLEHLKEHGIIHRDLCLENLLLVHCTLQAGPGPAPAPAPAPAPAAAAPPCSSAAPPAGGTLSPAAGPASPEGPREKQLPRLIISNFLKAKQKPGGTPNLQQKKSQARLAPEIVSASQYRKFDEFQTGILIYELLHQPNPFEVRAQLRERDYRQEDLPPLPALSLYSPGLQQLAHLLLEADPIKRIRIGEAKRVLQCLLWGPRRELVQQPGTSEEALCGTLHNWIDMKRALMMMKFAEKAVDRRRGVELEDWLCCQYLASAEPGALLQSLKLLQLL
modifications: phosphorylated at the tandem site 14-3-3 motif (RAASSP) by LC MS/MS
notes: PEAK2 (SgK223, PRAG1), human, UniProt Q86YV5, residues 802-1406; Homodimer by SEC-MALS; TEV-cleavable tag
Turning to B5, in series [9], the “stoichiometry N” value was 2.
